Experimental data reported in US20180364253A1 (published 2018).
Bridge positions count the residues as written; N and C are the ends. Square brackets hold non-standard residues; d marks the D form. Primed or numbered codes have the meaning given here. Ends that are not written are not given here. * marks the point of attachment. Biotin = O=C1N[C@H]2[C@H](CS[C@H]2CCCCC(=O)*)N1; Lys(N3) = [N-]=[N+]=NCCCC[C@H](N)C(=O)O; PEG3′ = PEGylated amino acid linker; Biotin′ = not defined here; Pra = C#CC[C@H](N)C(=O)O

Legend:
[1] = molecular target: T1, Plasmodium falciparum Histidine Rich Protein-2 (Pf.HRP-2) (Plasmodium falciparum); test: method and form of the target not stated
T1 chain: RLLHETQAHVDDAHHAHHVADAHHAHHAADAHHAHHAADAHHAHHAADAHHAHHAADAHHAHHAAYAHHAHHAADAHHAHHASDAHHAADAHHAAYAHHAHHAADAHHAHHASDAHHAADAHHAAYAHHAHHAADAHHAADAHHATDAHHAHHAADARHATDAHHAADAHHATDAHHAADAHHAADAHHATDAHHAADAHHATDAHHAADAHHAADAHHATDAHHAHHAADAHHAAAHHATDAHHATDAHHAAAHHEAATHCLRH

[2] = molecular target: T2, full-length His-tagged IL-17F protein (ab167911, Abcam) (human, UniProt Q96PD4 31-163); test: fluorescence polarization in solution: IL-17F titrated against the 5-FITC-tagged macrocycle
T2 construct: Bought protein, called 'full-length'; also called human IL-17F protein; recombinant human IL-17F protein; not shown: His tag of the bought protein
T2 chain: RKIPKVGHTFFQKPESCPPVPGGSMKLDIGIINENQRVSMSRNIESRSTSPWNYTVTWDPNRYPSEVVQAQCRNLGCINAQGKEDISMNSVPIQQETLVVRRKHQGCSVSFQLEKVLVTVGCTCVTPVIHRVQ

[3] = molecular target: T1, Plasmodium falciparum Histidine Rich …; test: comparison of EC50 values
[4] = molecular target: T2, full-length His-tagged IL-17F protein …; test: fluorescence polarization in solution
[5] = molecular target: T2, full-length His-tagged IL-17F protein …; test: comparison of affinities for His-tagged IL-17F
[6] = molecular target: T2, full-length His-tagged IL-17F protein …; test: point ELISA against recombinant human IL-17F and IL-17A
[7] = molecular target: T2, full-length His-tagged IL-17F protein …; test: binding to His-tagged IL-17F human recombinant protein; method not named there (ELISA implied)
[8] = molecular target: T2, full-length His-tagged IL-17F protein …; test: comparison of affinities for His-tagged IL-17F; reference the other biligands (PEG1, PEG2, PEG4, PEG5)
[9] = molecular target: T2, full-length His-tagged IL-17F protein …; test: point ELISA: ligand on NeutrAvidin plate, 100 nM His-tagged IL-17F against His-tagged IL-17A as reference
Description: Point ELISA (IL-17F vs. IL-17A selectivity assay). […] The plate was aspirated and then washed with TBS (5×) and Wash Buffer (0.05% (v/v) Tween-20 in PBS, 1×). Full-length His-tagged IL-17F (ab167911, Abcam) and IL-17A (ab166882, Abcam) proteins were prepared at 100 nM and 10 nM in Wash Buffer and incubated in the designated microwells for 90 min at room temperature. Microwells were aspirated and subsequently washed with Wash Buffer (10×). To detect the bound IL-17F and IL-17A proteins, Alkaline Phosphatase (AP)-conjugated Anti-6X His tag® antibody [HIS-1] (ab49746, Abcam) was prepared at 1:10,000 dilution and added to the microwells for 1 h at room temperature. […] AttoPhos® AP Fluorescent Substrate System (S1000, Promega) was employed to develop the microwells.
(§1) For these assays, the full-length His-tagged IL-17F and IL-17A proteins were captured using the macrocyclic peptide ligands immobilized on a NeutrAvidin-coated plate.

[10] = molecular target: T2, full-length His-tagged IL-17F protein …; test: sandwich ELISA: biotinylated ligand on NeutrAvidin plate, His-tagged IL-17F titrated, anti-His-AP detection
[11] = molecular target: T2, full-length His-tagged IL-17F protein …; test: surface-immobilized macrocycle contacted with IL-17F, IL-17A or no protein
[12] = molecular target: T3, His6-PEG3-FFQKPESSPPVPGGS (human, not fully specified (N-terminus); printed as His6-PEG3-FFQKPESSPPVPGGS); test: point ELISA with His-tagged epitope peptides scrambled at the N- or C-terminus
T3 construct: Chemically synthesized
T3 peptide: FFQKPESSPPVPGGS

[13] = molecular target: T4, His6-PEG3-SQFEKFPSPPVPGGS (not fully specified (N-terminus); printed as His6-PEG3-SQFEKFPSPPVPGGS); test: point ELISA: ligand on NeutrAvidin plate, His-tagged epitope peptide, anti-His-AP detection
T4 construct: Chemically synthesized
T4 peptide: SQFEKFPSPPVPGGS
Description: (§2) Assay to determine orientation of macrocycle binding to IL-17F Epitope1. […] The plate was aspirated and then washed with TBS (5×) and Wash Buffer (0.05% (v/v) Tween-20 in PBS, 1×). Chemically synthesized His-tagged IL-17F epitopes were prepared at 2 μM in Wash Buffer and incubated in the designated microwells for 90 min at room temperature. Wash Buffer without epitope was added as a control. Microwells were aspirated and subsequently washed with Wash Buffer (10×). To detect the bound IL-17F epitopes, Alkaline Phosphatase (AP)-conjugated Anti-6X His tag® antibody [HIS-1] (ab49746, Abcam) was prepared at 1:10,000 dilution and added to the microwells for 1 h at room temperature. […] AttoPhos® AP Fluorescent Substrate System (S1000, Promega) was employed to develop the microwells. […] Data are shown after subtraction of the no-epitope background.

[14] = molecular target: T5, His6-PEG3-FFQKPESSPVSPGPG (not fully specified (N-terminus); printed as His6-PEG3-FFQKPESSPVSPGPG); test: point ELISA: ligand on NeutrAvidin plate, 2 µM His-tagged epitope peptide, anti-His-AP detection
T5 construct: Chemically synthesized
T5 peptide: FFQKPESSPVSPGPG
Description: as §2

[15] = molecular target: T2, full-length His-tagged IL-17F protein …; test: point ELISA: ligand on NeutrAvidin plate, His-tagged IL-17F against His-tagged IL-17A as reference
Description: Point ELISA (IL-17F vs. IL-17A selectivity assay). […] The plate was aspirated and then washed with TBS (5×) and Wash Buffer (0.05% (v/v) Tween-20 in PBS, 1×). Full-length His-tagged IL-17F (ab167911, Abcam) and IL-17A (ab166882, Abcam) proteins were prepared at 100 and 10 nM in Wash Buffer and incubated in the designated microwells for 90 min at room temperature. Microwells were aspirated and subsequently washed with Wash Buffer (10×). To detect the bound IL-17F and IL-17A proteins, Alkaline Phosphatase (AP)-conjugated Anti-6X His tag® antibody [HIS-1] (ab49746, Abcam) was prepared at 1:10,000 dilution and added to the microwells for 1 h at room temperature. […] AttoPhos® AP Fluorescent Substrate System (S1000, Promega) was employed to develop the microwells.
as §1

[16] = molecular target: T3, His6-PEG3-FFQKPESSPPVPGGS; test: point ELISA: ligand on NeutrAvidin plate, 2 µM His-tagged epitope peptide, anti-His-AP detection
Description: as §2

[17] = molecular target: T2, full-length His-tagged IL-17F protein …; test: method not named there (same number as the ELISA EC50)

GWNVDL (also: cyclic peptide, closure not given here, also called cy(GWNVDL)) [cyclic PCC with variable sequence GWNVDL (SEQ ID NO:30)] gave an EC50 [1] of 50 nM.

B1: fluorescein 5-isothiocyanate (5-FITC)-tagged LF2 (peptide)
peptide: [Pra]RSYNK[Lys(N3)]
modifications: triazole N-C; numbers in words are those of the source; also: 5-FITC tag, position not given here
notes: Form of LF2 used in fluorescence polarization; also called LF2 (5-FITC-tagged)
For B1, the Kd [2] was 28 nM.

B2: cy(YKYYR)(SEQ ID NO:29)-linker-cy(GWNVDL) (SEQ ID NO:30) (peptide)
peptide 1: YKYYR
peptide 2: GWNVDL
modifications: not fully specified
notes: One covalent molecule; also called the resultant biligand
B2 was tested, and the “fold improvement over the better of the two ligand components” value [3] was 100 fold and the EC50 [1] was 0.54 nM.

B3: Biotin-PEG3-Cy(RSYNK)(SEQ ID NO:28)-PEG3-Cy(RRATS) (SEQ ID NO:9) (peptide)
peptide 1: {Biotin-PEG3′}-[Pra]RSYNK
peptide 2: [Pra]RRATS[Lys(N3)]
modifications: not fully specified (C-terminus); also: triazole to a chain's N/C-terminus, triazole to a chain's N/C-terminus
notes: One covalent molecule: the two macrocycles are joined by a single PEGylated amino acid (PEG3); also called Bi-LF; Cy(RSYNK)-PEG3-Cy(RRATS)
B3 was tested, and the Kd [4] was 0.252 nM, the “fold improvement in affinity relative to the individual PCC macrocyclic ligands” value [5] was over 100 fold and the “selectivity for IL-17F (against IL-17A)” value [6] was 4 ratio. For the same binder, the Kd [7] was 0.246 nM and the “times stronger than the other biligands” value [8] was at least 16 fold.

B4: Biotin-PEG3-Cy(KKGWP) (SEQ ID NO:23) (peptide)
peptide: KKGWP
modifications: not fully specified; cyclised by a triazole between flanking N-terminal Pra (L-propargylglycine) and C-terminal Az4 (L-azidolysine); N-terminal Biotin-PEG3 label
notes: also called PEG3-biotin-modified Cy(KKGWP)
For B4, the “selectivity for IL-17F (against IL-17A)” value [9] was 4 ratio and the EC50 [10] was 24 nM.

YKYYR (also: cyclic, mode of cyclisation not given here, also called cyclic YKYYR) [Cy(YKYYR) (SEQ ID NO:29)] was tested, and the EC50 [1] was 220 nM.

B5: Cy(RRATS)(SEQ ID NO:9)-PEG3-biotin (peptide)
peptide: [Pra]RRATS[Lys(N3)]-{PEG3′-Biotin′}
modifications: triazole N-C
notes: also called LF1; PEG3-biotin-modified Cy(RRATS)
For B5, the “selectivity for IL-17F (against IL-17A)” value [11] was 10 ratio, the binding result [12] was “binds” and the binding result [13] was “no binding (tested: 2 µM epitope)”. For the same binder, the binding result [14] was “binds”, the “selectivity for IL-17F (against IL-17A)” value [15] was 2 ratio and the EC50 [10] was 66 nM.

B6: Cy(RRAQS)(SEQ ID NO:10)-PEG3-biotin (peptide)
peptide: [Pra]RRAQS[Lys(N3)]-{PEG3′-Biotin′}
modifications: triazole N-C
notes: also called PEG3-biotin-modified Cy(RRAQS)
B6: no binding (tested: 2 µM epitope) [13]; binds [16]; binds [14]. The “selectivity for IL-17F (against IL-17A)” value [15] was 2 ratio and the EC50 [10] was 52 nM.

B7: fluorescein 5-isothiocyanate (5-FITC)-tagged LF1 (peptide)
peptide: [Pra]RRATS[Lys(N3)]
modifications: triazole N-C; numbers in words are those of the source; also: 5-FITC tag, position not given here
notes: Form of LF1 used in fluorescence polarization; also called LF1 (5-FITC-tagged)
B7 was tested, and the Kd [2] was 50 nM.

B8: linked biligand of two Cy(YKYYR) (SEQ ID NO:29) PCCs with about a 1.5 nm long linker (peptide)
peptide: YKYYR
modifications: also: cyclic peptide (Cy), closure not given here, dimer: two macrocycles joined by a linker of about 1.5 nm
notes: also called the resultant linked biligand
For B8, the EC50 [1] was 20.8 nM.

B9: Biotin-PEG3-Cy(RSYNK) (SEQ ID NO:28) (peptide)
peptide: RSYNK
modifications: not fully specified; cyclised by a triazole between flanking N-terminal Pra (L-propargylglycine) and C-terminal Az4 (L-azidolysine); Biotin-PEG3 label
notes: also called LF2; PEG3-biotin-modified Cy(RSYNK)
With B9 the Kd [17] was 15 nM, the “selectivity for IL-17F (against IL-17A)” value [9] was 4 ratio and the EC50 [10] was 15 nM.
